Laboratory results reported in PMC7572813.

Target: B/Phuket/3073/2013 NA ectodomain (residues W80-L466) (influenza B virus B/Phuket/3073/2013)
Assay: cryo-EM structure

Q: For “B/Phuket/3073/2013 NA ectodomain (residues W80-L466) (domain or fragment)”, which stoichiometry N is on record?
A: 4
